Reference: the supplement of paper PMC9112550, “Optimization of the antimicrobial peptide Bac7 by deep mutational scanning” (BMC Biology, 2022)

System: Escherichia coli TOP10
Experiment: shrunken log2 fold change of peptide-encoding DNA abundance (4.5 h post-induction vs induction); higher = less antimicrobial activity (less host growth inhibition)
Conditions: time post-induction: 4.5 h; library: site-saturation at positions 5, 18, 19, 20
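Further: peptides expressed intracellularly from a pBAD plasmid library in pooled LB shake-flask culture, induced with 0.3% L-arabinose, DNA abundance read by NGS, three biological replicates, DESeq2 with apeglm shrinkage.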

| Sequence | shrunken log2 fold change |
| --- | --- |
| RRIRERPPRLPRPRPRPVWFPRP | -0.0467 |
| RRIRRRPPRLPRPRPRPYFNPRP | -0.2 |
| RRIRCRPPRLPRPRPRPMFWPRP | -0.327 |
| RRIRARPPRLPRPRPRPSETPRP | 0.176 |
| RRIRCRPPRLPRPRPRPCCRPRP | -0.106 |
| RRIRFRPPRLPRPRPRPSIDPRP | -0.433 |
| RRIRHRPPRLPRPRPRPANGPRP | -0.0837 |
| RRIRYRPPRLPRPRPRPWPTPRP | -0.426 |
| RRIRFRPPRLPRPRPRPSYMPRP | -1.21 |
| RRIRWRPPRLPRPRPRPIWGPRP | -0.01 |
| RRIRGRPPRLPRPRPRPCMGPRP | 0.289 |
| RRIRYRPPRLPRPRPRPYTIPRP | -0.0225 |
| RRIRGRPPRLPRPRPRPQYTPRP | -0.0367 |
| RRIRGRPPRLPRPRPRPYLVPRP | 0.15 |
| RRIRNRPPRLPRPRPRPCPAPRP | 0.203 |
| RRIRIRPPRLPRPRPRPTFRPRP | -0.261 |
| RRIRYRPPRLPRPRPRPQNGPRP | -0.152 |
| RRIRIRPPRLPRPRPRPVYMPRP | -0.678 |
| RRIRVRPPRLPRPRPRPSIYPRP | -0.482 |
| RRIRIRPPRLPRPRPRPLKCPRP | 0.0563 |
| RRIRHRPPRLPRPRPRPRHIPRP | -0.39 |
| RRIRHRPPRLPRPRPRPDMDPRP | 0.0205 |

| Sequence | shrunken log2 fold change |
| --- | --- |
| RRIRVRPPRLPRPRPRPDAYPRP | -0.056 |
| RRIRVRPPRLPRPRPRPNSFPRP | -0.0668 |
| RRIRPRPPRLPRPRPRPGTVPRP | -0.182 |
| RRIRCRPPRLPRPRPRPMHKPRP | -0.203 |
| RRIRWRPPRLPRPRPRPVNMPRP | -0.101 |
| RRIRRRPPRLPRPRPRPEWVPRP | 0.344 |
| RRIRKRPPRLPRPRPRPIHLPRP | -0.0911 |
| RRIRYRPPRLPRPRPRPKMTPRP | -0.728 |
| RRIRCRPPRLPRPRPRPAKFPRP | 0.154 |
| RRIRARPPRLPRPRPRPIHLPRP | -0.633 |
| RRIRKRPPRLPRPRPRPYEYPRP | 0.0169 |
| RRIRQRPPRLPRPRPRPWLDPRP | 0.19 |
| RRIRHRPPRLPRPRPRPYKLPRP | -0.611 |
| RRIRMRPPRLPRPRPRPVLSPRP | 0.0984 |
| RRIRFRPPRLPRPRPRPDEFPRP | -0.267 |
| RRIRRRPPRLPRPRPRPIKCPRP | -0.17 |
| RRIRMRPPRLPRPRPRPDYVPRP | -0.183 |
| RRIRNRPPRLPRPRPRPNPAPRP | 0.028 |
| RRIRARPPRLPRPRPRPYTKPRP | -0.156 |
| RRIRMRPPRLPRPRPRPRALPRP | 2.22 |
| RRIRDRPPRLPRPRPRPEEDPRP | 0.012 |
| RRIRRRPPRLPRPRPRPTIPPRP | -0.0701 |

| Sequence | shrunken log2 fold change |
| --- | --- |
| RRIRNRPPRLPRPRPRPYFYPRP | -0.345 |
| RRIRMRPPRLPRPRPRPVWAPRP | 0.466 |
| RRIRLRPPRLPRPRPRPNAYPRP | 0.0618 |
| RRIRPRPPRLPRPRPRPWMFPRP | -0.306 |
| RRIRERPPRLPRPRPRPERLPRP | 0.171 |
| RRIRTRPPRLPRPRPRPNEGPRP | -0.191 |
| RRIRIRPPRLPRPRPRPKCSPRP | 0.0422 |
| RRIRCRPPRLPRPRPRPCHRPRP | -0.371 |
| RRIRLRPPRLPRPRPRPTAAPRP | 0.897 |
| RRIRKRPPRLPRPRPRPWNWPRP | -0.00973 |
| RRIRARPPRLPRPRPRPYHRPRP | -0.047 |
| RRIRCRPPRLPRPRPRPERHPRP | -0.0311 |
| RRIRTRPPRLPRPRPRPWLMPRP | -0.11 |
| RRIRVRPPRLPRPRPRPSGCPRP | -0.194 |
| RRIRVRPPRLPRPRPRPFYYPRP | -0.556 |
| RRIRARPPRLPRPRPRPQDMPRP | -0.322 |
| RRIRVRPPRLPRPRPRPKNQPRP | -0.173 |
| RRIRNRPPRLPRPRPRPGIFPRP | -0.0122 |
| RRIRLRPPRLPRPRPRPSKSPRP | -0.0582 |
| RRIRNRPPRLPRPRPRPEWYPRP | -0.451 |
| RRIRMRPPRLPRPRPRPGIQPRP | -0.105 |
| RRIRPRPPRLPRPRPRPPSHPRP | 0.0789 |

| Sequence | shrunken log2 fold change |
| --- | --- |
| RRIRMRPPRLPRPRPRPEYAPRP | 0.0325 |
| RRIRQRPPRLPRPRPRPTLDPRP | 0.476 |
| RRIRVRPPRLPRPRPRPCEMPRP | 1.45 |
| RRIRGRPPRLPRPRPRPGVWPRP | 1.22 |
| RRIRQRPPRLPRPRPRPCRNPRP | -0.0117 |
| RRIRMRPPRLPRPRPRPIPPPRP | 0.369 |
| RRIRMRPPRLPRPRPRPWYLPRP | -0.0736 |
| RRIRNRPPRLPRPRPRPMCIPRP | -0.0106 |
| RRIRQRPPRLPRPRPRPQVAPRP | -0.156 |
| RRIRHRPPRLPRPRPRPMVDPRP | -0.222 |
| RRIRDRPPRLPRPRPRPWGLPRP | 0.0419 |
| RRIRLRPPRLPRPRPRPNHAPRP | -0.0276 |
| RRIRKRPPRLPRPRPRPWFSPRP | -0.329 |
| RRIRIRPPRLPRPRPRPAFQPRP | 0.107 |
| RRIRNRPPRLPRPRPRPIEMPRP | -0.141 |
| RRIRIRPPRLPRPRPRPNYCPRP | -0.139 |
| RRIRVRPPRLPRPRPRPRNGPRP | 0.0197 |
| RRIRGRPPRLPRPRPRPDSYPRP | 0.0941 |
| RRIRWRPPRLPRPRPRPDVYPRP | 0.00123 |
| RRIRMRPPRLPRPRPRPSSVPRP | 3.19 |
| RRIRIRPPRLPRPRPRPADQPRP | 0.0357 |
| RRIRQRPPRLPRPRPRPLYIPRP | -0.659 |

| Sequence | shrunken log2 fold change |
| --- | --- |
| RRIRHRPPRLPRPRPRPGCMPRP | -0.0922 |
| RRIRQRPPRLPRPRPRPMPAPRP | 0.178 |
| RRIRDRPPRLPRPRPRPDYNPRP | -0.204 |
| RRIRHRPPRLPRPRPRPFWSPRP | -0.0841 |
| RRIRDRPPRLPRPRPRPVDKPRP | -0.01 |
| RRIRHRPPRLPRPRPRPTNFPRP | -0.398 |
| RRIRTRPPRLPRPRPRPNSWPRP | -0.413 |
| RRIRIRPPRLPRPRPRPVQAPRP | 0.0348 |
| RRIRLRPPRLPRPRPRPKFWPRP | 0.0752 |
| RRIRRRPPRLPRPRPRPMVWPRP | 0.686 |
| RRIRRRPPRLPRPRPRPFYNPRP | -0.139 |
| RRIRHRPPRLPRPRPRPQFAPRP | 0.0852 |
| RRIRFRPPRLPRPRPRPSEWPRP | -0.028 |
| RRIRKRPPRLPRPRPRPMNTPRP | -0.287 |
| RRIRDRPPRLPRPRPRPISYPRP | -0.381 |
| RRIRARPPRLPRPRPRPHRMPRP | -0.0562 |
| RRIRHRPPRLPRPRPRPKCKPRP | -0.14 |
| RRIRDRPPRLPRPRPRPFDTPRP | -0.329 |
| RRIRYRPPRLPRPRPRPMVDPRP | -0.248 |
| RRIRMRPPRLPRPRPRPGWHPRP | 0.41 |
| RRIRRRPPRLPRPRPRPQLFPRP | 2.21 |
